This note sets out measurements from patent US20230118307A1, “THERAPEUTIC USE OF LONG-ACTING CONJUGATE OF TRIPLE AGONIST HAVING ACTIVITIES TO ALL OF GLUCAGON/GLP-1/GIP RECEPTORS FOR LUNG DISEASE” (HANMI PHARM. CO., LTD., priority 2020, published 2023).

Positions of bridges follow the written chain, without caps; N, C: chain ends. Non-standard residues stand in square brackets, D forms with d. No end group written: not given here. *: point of attachment. Acetyl(2-(4-imidazolyl)) = O=C(Cc1c[nH]cn1)*; Aib = CC(C)(N)C(=O)O A value given as a limit tells only on which side of the number the result lay.

Sequences and labels used below:
T1: human GIP receptor (human, UniProt P48546 22-466)
T1 sequence (looked up): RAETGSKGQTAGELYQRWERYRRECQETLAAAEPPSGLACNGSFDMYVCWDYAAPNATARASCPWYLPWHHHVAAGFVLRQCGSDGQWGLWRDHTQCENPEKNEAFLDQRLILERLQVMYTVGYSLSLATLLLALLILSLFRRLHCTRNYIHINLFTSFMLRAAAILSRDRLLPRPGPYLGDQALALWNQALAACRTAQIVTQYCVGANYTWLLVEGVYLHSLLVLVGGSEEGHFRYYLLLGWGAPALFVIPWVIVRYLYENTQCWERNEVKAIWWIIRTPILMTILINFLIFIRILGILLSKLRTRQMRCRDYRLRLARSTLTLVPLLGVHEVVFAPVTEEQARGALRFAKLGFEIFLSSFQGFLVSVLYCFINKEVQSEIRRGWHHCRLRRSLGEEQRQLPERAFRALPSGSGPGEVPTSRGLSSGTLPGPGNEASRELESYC

One assay concerns the target T1, human GIP receptor. The experiment in a line: cell-based or functional assay.
In the case of {Acetyl(2-(4-imidazolyl))}-[Aib]QGTFTSDKSKYLDERAAQDFVQWLLDGGPSSGAPPPS (ends and bridges not checked) [triple agonist of SEQ ID NO: 62], the “In vitro Activity Compared to Native Peptide (%) vs. GIP” value is less than 0.1%.
Consider H[Aib]QGTFTSDVSSYLDGQAAKEFVAWLLKGC [triple agonist of SEQ ID NO: 6], for which the “In vitro Activity Compared to Native Peptide (%) vs. GIP” value was less than 0.1%.
H[Aib]EGTFTSDYSIAMDEIHQKDFVNWLLAQC (bridge 16-20) [triple agonist of SEQ ID NO: 53]: the “In vitro Activity Compared to Native Peptide (%) vs. GIP” value was determined as 1.3%.
In the case of {Acetyl(2-(4-imidazolyl))}-[Aib]QGTFTSDYSIAMDEIACKDFVNWLLNTK (bridge 15-19) [triple agonist of SEQ ID NO: 61], the “In vitro Activity Compared to Native Peptide (%) vs. GIP” value came to 2.8%.
As for {Acetyl(2-(4-imidazolyl))}-[Aib]QGTFTSDYSICMDEKHQKDFVNWLLNTK (bridge 15-19) [triple agonist of SEQ ID NO: 59], the “In vitro Activity Compared to Native Peptide (%) vs. GIP” value is 4%.
For Y[Aib]QGTFTSDYSKCLDEKRAKDFVQWLLDHHPSSGQPPPS (bridge 16-20) [triple agonist of SEQ ID NO: 70], the “In vitro Activity Compared to Native Peptide (%) vs. GIP” value was found to be 64.4%.
In the case of H[Aib]QGTFTSDYSIAMDEIHQKDFVNWLLAQC (bridge 16-20) [triple agonist of SEQ ID NO: 55], the “In vitro Activity Compared to Native Peptide (%) vs. GIP” value worked out at 2.4%.
With Y[Aib]QGTFTSDYSKYLDECRAKDFVQWLLDHHPSSGQPPPS (bridge 16-20) [triple agonist of SEQ ID NO: 66], the “In vitro Activity Compared to Native Peptide (%) vs. GIP” value is 17.2%.
The same measure, in the same setting: with H[Aib]QGTFTSDVSKYLDGQAAKEFVAWLLKGC [triple agonist of SEQ ID NO: 7] the figure was less than 0.1%.
Still for that read-out and setting: for H[Aib]QGTFTSDYSKCLDEKRAKEFVQWLLDHHPSSGQPPPS (bridge 16-20) [triple agonist of SEQ ID NO: 65] the value was 11.6%; for Y[Aib]QGTFTSDYSKYLDERACKDFVQWLLDHHPSSGQPPPS (bridge 16-20) [triple agonist of SEQ ID NO: 71], 94.7%; for Y[Aib]QGTFTSDYSKYLDECAAKDFVQWLLDHHPSSGQPPPS (bridge 16-20) [triple agonist of SEQ ID NO: 67], 39.8%.
The same measure, in the same setting: with {Acetyl(2-(4-imidazolyl))}-[Aib]QGTFTSDCSKYLDERAAQDFVQWLLDGGPSSGAPPPS (ends and bridges not checked) [triple agonist of SEQ ID NO: 63] the figure was less than 0.1%.

The next assay deals with human GLP-1 receptor (human, UniProt P43220 24-463). Nature of the assay: cell-based or functional assay.
In the case of {Acetyl(2-(4-imidazolyl))}-[Aib]QGTFTSDKSKYLDERAAQDFVQWLLDGGPSSGAPPPS (ends and bridges not checked) [triple agonist of SEQ ID NO: 62], the “In vitro Activity Compared to Native Peptide (%) vs. GLP-1” value came to 5.2%.
For the molecule H[Aib]QGTFTSDVSSYLDGQAAKEFVAWLLKGC [triple agonist of SEQ ID NO: 6], the “In vitro Activity Compared to Native Peptide (%) vs. GLP-1” value amounted to 17%.
Same read-out and setting: with H[Aib]EGTFTSDYSIAMDEIHQKDFVNWLLAQC (bridge 16-20) [triple agonist of SEQ ID NO: 53] the figure was 161%; with {Acetyl(2-(4-imidazolyl))}-[Aib]QGTFTSDYSIAMDEIACKDFVNWLLNTK (bridge 15-19) [triple agonist of SEQ ID NO: 61], 59.8%; with {Acetyl(2-(4-imidazolyl))}-[Aib]QGTFTSDYSICMDEKHQKDFVNWLLNTK (bridge 15-19) [triple agonist of SEQ ID NO: 59], 40.3%.
The same measure, in the same setting: with Y[Aib]QGTFTSDYSKCLDEKRAKDFVQWLLDHHPSSGQPPPS (bridge 16-20) [triple agonist of SEQ ID NO: 70] the figure was 15.1%; with H[Aib]QGTFTSDYSIAMDEIHQKDFVNWLLAQC (bridge 16-20) [triple agonist of SEQ ID NO: 55], 27.1%.
For Y[Aib]QGTFTSDYSKYLDECRAKDFVQWLLDHHPSSGQPPPS (bridge 16-20) [triple agonist of SEQ ID NO: 66], the “In vitro Activity Compared to Native Peptide (%) vs. GLP-1” value is 15.8%.
Same read-out and setting: for H[Aib]QGTFTSDVSKYLDGQAAKEFVAWLLKGC [triple agonist of SEQ ID NO: 7] the value was 13.7%; for H[Aib]QGTFTSDYSKCLDEKRAKEFVQWLLDHHPSSGQPPPS (bridge 16-20) [triple agonist of SEQ ID NO: 65], 95.4%.
In the case of Y[Aib]QGTFTSDYSKYLDERACKDFVQWLLDHHPSSGQPPPS (bridge 16-20) [triple agonist of SEQ ID NO: 71], the “In vitro Activity Compared to Native Peptide (%) vs. GLP-1” value stood at 90.1%.
The same measure, in the same setting: for Y[Aib]QGTFTSDYSKYLDECAAKDFVQWLLDHHPSSGQPPPS (bridge 16-20) [triple agonist of SEQ ID NO: 67] the value was 28.5%.
Turning to {Acetyl(2-(4-imidazolyl))}-[Aib]QGTFTSDCSKYLDERAAQDFVQWLLDGGPSSGAPPPS (ends and bridges not checked) [triple agonist of SEQ ID NO: 63], the “In vitro Activity Compared to Native Peptide (%) vs. GLP-1” value is 15.3%.

In the next assay the target is human GCG receptor (human, UniProt P47871 26-477). Nature of the assay: cell-based or functional assay.
Sequence of human GCG receptor (P47871 26-477): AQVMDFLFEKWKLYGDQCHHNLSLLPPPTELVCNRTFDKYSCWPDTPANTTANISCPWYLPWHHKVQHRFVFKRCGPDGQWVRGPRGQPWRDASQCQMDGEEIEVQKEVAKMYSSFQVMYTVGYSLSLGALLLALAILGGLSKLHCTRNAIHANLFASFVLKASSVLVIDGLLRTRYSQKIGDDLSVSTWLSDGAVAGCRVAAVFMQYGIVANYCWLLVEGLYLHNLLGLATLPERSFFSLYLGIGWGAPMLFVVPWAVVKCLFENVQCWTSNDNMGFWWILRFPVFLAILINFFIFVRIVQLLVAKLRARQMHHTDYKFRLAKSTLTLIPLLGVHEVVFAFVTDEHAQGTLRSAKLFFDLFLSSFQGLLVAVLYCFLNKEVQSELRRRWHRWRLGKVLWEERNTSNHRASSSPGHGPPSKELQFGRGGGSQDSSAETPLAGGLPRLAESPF
Consider {Acetyl(2-(4-imidazolyl))}-[Aib]QGTFTSDKSKYLDERAAQDFVQWLLDGGPSSGAPPPS (ends and bridges not checked) [triple agonist of SEQ ID NO: 62], for which the “In vitro Activity Compared to Native Peptide (%) vs. Glucagon” value is less than 0.1%.
With H[Aib]QGTFTSDVSSYLDGQAAKEFVAWLLKGC [triple agonist of SEQ ID NO: 6], the “In vitro Activity Compared to Native Peptide (%) vs. Glucagon” value is less than 0.1%.
For the molecule H[Aib]EGTFTSDYSIAMDEIHQKDFVNWLLAQC (bridge 16-20) [triple agonist of SEQ ID NO: 53], the “In vitro Activity Compared to Native Peptide (%) vs. Glucagon” value was found to be 8.4%.
Take {Acetyl(2-(4-imidazolyl))}-[Aib]QGTFTSDYSIAMDEIACKDFVNWLLNTK (bridge 15-19) [triple agonist of SEQ ID NO: 61]: the “In vitro Activity Compared to Native Peptide (%) vs. Glucagon” value is less than 0.1%.
On to {Acetyl(2-(4-imidazolyl))}-[Aib]QGTFTSDYSICMDEKHQKDFVNWLLNTK (bridge 15-19) [triple agonist of SEQ ID NO: 59], for which the “In vitro Activity Compared to Native Peptide (%) vs. Glucagon” value is less than 0.1%.
Regarding Y[Aib]QGTFTSDYSKCLDEKRAKDFVQWLLDHHPSSGQPPPS (bridge 16-20) [triple agonist of SEQ ID NO: 70], the “In vitro Activity Compared to Native Peptide (%) vs. Glucagon” value came out at 71.3%.
Consider H[Aib]QGTFTSDYSIAMDEIHQKDFVNWLLAQC (bridge 16-20) [triple agonist of SEQ ID NO: 55], for which the “In vitro Activity Compared to Native Peptide (%) vs. Glucagon” value amounted to 0.7%.
On to Y[Aib]QGTFTSDYSKYLDECRAKDFVQWLLDHHPSSGQPPPS (bridge 16-20) [triple agonist of SEQ ID NO: 66], for which the “In vitro Activity Compared to Native Peptide (%) vs. Glucagon” value turned out to be 172%.
Still for that read-out and setting: for H[Aib]QGTFTSDVSKYLDGQAAKEFVAWLLKGC [triple agonist of SEQ ID NO: 7] the value was less than 0.1%; for H[Aib]QGTFTSDYSKCLDEKRAKEFVQWLLDHHPSSGQPPPS (bridge 16-20) [triple agonist of SEQ ID NO: 65], 25.2%.
For the molecule Y[Aib]QGTFTSDYSKYLDERACKDFVQWLLDHHPSSGQPPPS (bridge 16-20) [triple agonist of SEQ ID NO: 71], the “In vitro Activity Compared to Native Peptide (%) vs. Glucagon” value amounted to 12.7%.
The same measure, in the same setting: for Y[Aib]QGTFTSDYSKYLDECAAKDFVQWLLDHHPSSGQPPPS (bridge 16-20) [triple agonist of SEQ ID NO: 67] the value was 46.2%.
Same read-out and setting: for {Acetyl(2-(4-imidazolyl))}-[Aib]QGTFTSDCSKYLDERAAQDFVQWLLDGGPSSGAPPPS (ends and bridges not checked) [triple agonist of SEQ ID NO: 63] the value was less than 0.1%.
